# Measurements taken from PMC5887453 (Nucleic Acids Research, 2018).
# T1: Pyrococcus horikoshii elongation factor 2 (PhoEF-2), wild type (Pyrococcus horikoshii, UniProt O59521 1-732)
# T1 sequence (looked up): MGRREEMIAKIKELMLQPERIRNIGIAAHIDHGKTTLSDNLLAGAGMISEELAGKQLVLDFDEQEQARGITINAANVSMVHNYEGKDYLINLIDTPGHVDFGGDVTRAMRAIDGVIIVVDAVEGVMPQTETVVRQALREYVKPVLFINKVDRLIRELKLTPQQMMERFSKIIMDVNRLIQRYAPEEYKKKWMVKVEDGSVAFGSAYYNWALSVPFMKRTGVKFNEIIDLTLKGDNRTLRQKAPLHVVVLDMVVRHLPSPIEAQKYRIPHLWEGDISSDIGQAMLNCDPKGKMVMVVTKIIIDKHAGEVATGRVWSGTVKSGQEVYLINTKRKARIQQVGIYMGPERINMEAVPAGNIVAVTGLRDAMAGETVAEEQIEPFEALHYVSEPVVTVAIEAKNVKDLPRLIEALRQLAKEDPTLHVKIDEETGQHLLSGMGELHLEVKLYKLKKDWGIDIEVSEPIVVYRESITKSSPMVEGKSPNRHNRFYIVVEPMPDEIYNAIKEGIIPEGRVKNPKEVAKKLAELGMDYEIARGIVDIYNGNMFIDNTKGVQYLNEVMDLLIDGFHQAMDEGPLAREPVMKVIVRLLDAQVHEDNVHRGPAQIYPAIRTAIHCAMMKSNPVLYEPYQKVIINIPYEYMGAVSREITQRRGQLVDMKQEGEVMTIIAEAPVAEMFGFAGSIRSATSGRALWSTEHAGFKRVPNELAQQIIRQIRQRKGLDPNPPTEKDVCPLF
# Molecular target: T1, Pyrococcus horikoshii elongation factor …
# Experiment: crystal structure
binder,measurement,value
"EALAGLSALFG [P1C11, peptide of the 11 C-terminal amino acids of P. horikoshii P1 (E98-G108)]",binding result,binds
